Experimental findings from patent publication US20190025321A1 (WHITEHEAD INSTITUTE FOR BIOMEDICAL RESEARCH, published 2019) are described below.

B5: HA-metap2 (other, UniProt P50579 1-478, looked up, not shown: small tags and cut ends)
chain: MAGVEEVAASGSHLNGDLDPDDREEGAASTAEEAAKKKRRKKKKSKGPSAAGEQEPDKESGASVDEVARQLERSALEDKERDEDDEDGDGDGDGATGKKKKKKKKKRGPKVQTDPPSVPICDLYPNGVFPKGQECEYPPTQDGRTAAWRTTSEEKKALDQASEEIWNDFREAAEAHRQVRKYVMSWIKPGMTMIEICEKLEDCSRKLIKENGLNAGLAFPTGCSLNNCAAHYTPNAGDTTVLQYDDICKIDFGTHISGRIIDCAFTVTFNPKYDTLLKAVKDATNTGIKCAGIDVRLCDVGEAIQEVMESYEVEIDGKTYQVKPIRNLNGHSIGQYRIHAGKTVPIVKGGEATRMEEGEVYAIETFGSTGKGVVHDDMECSHYMKNFDVGHVPIRLPRTKHLLNVINENFGTLAFCRRWLDRLGESKYLMALKNLCDLGIVDPYPPLCDIKGSYTAQFEHTILLRPTCKEVVSRGDDY
notes: Negative control of the co-immunoprecipitations; also called metap2 control protein

In test [1] the target is B5. Kind of test: co-immunoprecipitation, anti-HA IP from transfected HEK-293T cells.
A further test has as its target T1, GSK3β (human, UniProt P49841).
T1 construct: endogenous, untagged; also called endogenous GSK3β, control immunoprecipitation
The test can be described thus: control immunoprecipitation with an anti-GSK3β antibody from HEK-293T cells starved of or restimulated with amino acids. The procedure:
FIG. 9A, FIG. 9B, FIG. 9C, FIG. 9D and FIG. 9E depict arginine regulates the interaction of GATOR2 with CASTOR1-containing complexes in cells and in vitro. […] HEK-293T cells cotransfected with the indicated cDNAs and stably expressing the indicated shRNAs were deprived of amino acids in the cell media for 50 min. Anti-HA immunoprecipitates were analyzed by immunoblotting for the indicated proteins. […] HEK-293T cells were starved or restimulated with amino acids, and immunoprecipitates were prepared from these cells using an antibody directed against GSK3β or WDR24. Immunoprecipitates were analyzed by immunoblotting for the indicated proteins. […] Stable expression lines of HEK-293T cells stably expressing the denoted proteins were cotransfected with the indicated cDNAs and treated as in FIG. 3A. Anti-HA immunoprecipitates were analyzed by immunoblotting for the levels of indicated proteins. FIG. 9D depicts deprivation of arginine, but not leucine, is sufficient to promote the association of endogenous GATOR2 with recombinant CASTOR1-CASTOR2 heterodimers. HEK-293T cells cotransfected with the indicated cDNAs were treated and analyzed as in FIG. 3C. […] Anti-HA immunoprecipitates were prepared and analyzed as in FIG. 3E.

Test [2] deals with B5. The test can be described thus: co-immunoprecipitation, anti-HA IP from transfected HEK-293T cells, immunoblot for endogenous CASTOR1. A general note: A western blot detects proteins with antibodies after separation by electrophoresis.
Test [3] concerns the target T2, endogenous GATOR2 complex (Seh1L, WDR59, WDR24, Sec13 and Mios) (human, UniProt Q9NXC5 1-875; Q96S15 1-790; Q6PJI9 1-974; P55735 2-322; Q96EE3 1-360, limits assumed).
T2 construct: Five-subunit complex; In most blots its presence is read from the mios band; also called detected by mios
Kind of test: co-immunoprecipitation, anti-FLAG IP of GATOR2 from a HEK-293T line with endogenously FLAG-tagged WDR59, immunoblot for endogenous CASTOR1. As to the method: (§1) FIG. 3A, FIG. 3B, FIG. 3C, FIG. 3D, FIG. 3E and FIG. 3F depict arginine regulates the interaction of GATOR2 with CASTOR1-homodimers and CASTOR1-CASTOR2 heterodimers in cells and in vitro. […] HEK-293T cells cotransfected with the indicated cDNAs were deprived of amino acids for 50 min or starved and restimulated with amino acids for 10 min. Anti-HA immunoprecipitates and cell lysates were analyzed by immunoblotting for levels of the indicated proteins. […] A HEK-293T cell line expressing endogenously FLAG-tagged WDR59 was treated as in (3A) and anti-FLAG immunoprecipitates were analyzed by immunoblotting for the indicated proteins. […] Cells were deprived of leucine, arginine, or all amino acids for 50 min, and restimulated for 10 min with the respective amino acids where indicated. Anti-HA immunoprecipitates were prepared and analyzed as in (3A). […] Anti-HA immunoprecipitates were prepared from HEK-293T cells expressing the indicated cDNAs and deprived of amino acids for 50 min. Indicated amino acids were added directly to the immunoprecipitates, which after re-washing, were analyzed as in (3A). […] The experiment was performed and analyzed as in (3D), except using the indicated concentrations of arginine. […] Anti-HA immunoprecipitates were prepared and analyzed as in (3A).

Test [4] concerns the target T2, endogenous GATOR2 complex (Seh1L, …). The test can be described thus: co-immunoprecipitation, anti-HA IP from HEK-293T cells deprived 50 min of all amino acids, leucine or arginine, or restimulated 10 min; immunoblot for endogenous mios. As to the method:
as §1

Test [5] concerns the target complete GATOR2 complex, recombinant (WDR24-FLAG, WDR59, mios, sec13, seh1L co-expressed) (UniProt Q96S15 1-790; Q6PJI9 1-974; Q9NXC5 1-875; P55735 1-322; Q96EE3 1-360, limits assumed). Kind of test: co-immunoprecipitation, anti-FLAG IP (bait WDR24-FLAG) from co-transfected HEK-293T cells, immunoblot for HA-tagged CASTOR1. The source says: FIG. 7A, FIG. 7B, FIG. 7C, FIG. 7D, FIG. 7E and FIG. 7F depicts CASTOR1 and CASTOR2 homologs are present in vertebrates and invertebrates, and the CASTORs and Sestrins bind to distinct sites on GATOR2. […] Sequence alignments are colored with respect to sequence identity as in FIG. 1C. The first and second ACT domains are annotated above the alignment with blue and orange bars, respectively. […] The sequence alignment is annotated as in (7B). FIG. 7E depicts the GATOR2 components WDR24, mios, and seh1L form a minimal complex that is sufficient to co-immunoprecipitate CASTOR1. HEK-293T cells were cotransfected with the indicated cDNAs, and anti-FLAG immunoprecipitates were analyzed as in FIG. 1D.
Where indicated, for transient cotransfection experiments, 2 million HEK-293T cells were plated in 10 cm dishes and transfected 24 hrs later using the polyethylenimine method (Boussif et al., 1995) with the indicated pRK5-based expression vectors: 300 ng HA-metap2, 40 ng CASTOR1-HA, 80 ng CASTOR1-FLAG, 40 ng CASTOR2-HA, 80 ng CASTOR2-FLAG; 100 ng WDR24-FLAG, 100 ng WDR59, 100 ng mios, 150 ng sec13, 150 ng seh1L, 10 ng or 40 ng or 100 ng or 600 ng of myc-Sestrin2 or myc-CASTOR2; 2 ng FLAG-56K1, 15 ng or 60 ng HA-CASTOR2, 75 ng and 175 ng of CASTOR1-HA. The total amount of plasmid DNA in each transfection was normalized to 5 μg with empty pRK5. […]

The target in test [6] is T2, endogenous GATOR2 complex (Seh1L, …). Kind of test: co-immunoprecipitation, anti-HA IP from transfected HEK-293T cells starved of all amino acids 50 min, immunoblot for endogenous mios. The procedure:
FIG. 8A depicts validation of the anti-serum used to detect endogenous CASTOR2. Lysates were prepared from HEK-293T lines stably expressing the indicated shRNAs and analyzed by immunoblotting for levels of indicated proteins. FIG. 8B depicts validation of the anti-serum used to detect endogenous CASTOR1. Lysates were prepared from HEK-293T stably lines expressing the indicated shRNAs and analyzed as in (8C). The arrow denotes the band corresponding to endogenous CASTOR1. […] HEK-293T cells were cotransfected with the indicated cDNAs in expression vectors, starved of all amino acids for 50 minutes, and anti-HA immunoprecipitates were analyzed as in FIG. 1D. […] HEK-293T cells were cotransfected with the indicated cDNAs in expression vectors, starved of all amino acids for 50 minutes, and anti-HA immunoprecipitates were analyzed as in FIG. 1D.

T1 sequence (P49841 whole entry): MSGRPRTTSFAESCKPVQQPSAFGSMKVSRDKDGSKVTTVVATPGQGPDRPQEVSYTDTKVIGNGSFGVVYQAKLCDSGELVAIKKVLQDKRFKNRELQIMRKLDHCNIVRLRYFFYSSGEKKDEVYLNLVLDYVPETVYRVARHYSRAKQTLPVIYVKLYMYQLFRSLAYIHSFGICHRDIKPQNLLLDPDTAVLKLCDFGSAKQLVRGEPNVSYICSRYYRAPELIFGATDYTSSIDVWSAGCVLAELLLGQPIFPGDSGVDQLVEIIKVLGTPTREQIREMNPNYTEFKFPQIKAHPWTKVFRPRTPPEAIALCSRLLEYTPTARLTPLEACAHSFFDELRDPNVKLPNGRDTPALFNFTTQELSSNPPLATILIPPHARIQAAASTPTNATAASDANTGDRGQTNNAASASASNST

B1: endogenous CASTOR2 (other, human, UniProt A6NHX0 1-329, looked up)
chain: MELHILEHRLQVASVAKESIPLFTYGLIKLAFLSSKTRCKFFSLTETPEDYTIIVDEEGFLELPSSEHLSVADATWLALNVVSGGGSFSSSQPIGVTKIAKSVIAPLADQNISVFMLSTYQTDFILVRERDLPFVTHTLSSEFTILRVVNGETVAAENLGITNGFVKPKLVQRPVIHPLSSPSNRFCVTSLDPDTLPAVATLLMDVMFYSNGVKDPMATGDDCGHIRFFSFSLIEGYISLVMDVQTQQRFPSNLLFTSASGELWKMVRIGGQPLGFDECGIVAQISEPLAAADIPAYYISTFKFDHALVPEENINGVISALKVSQAEKH
notes: Detected with an anti-CASTOR2 antiserum; also called GATSL2
For B1, the binding result with HA-metap2 [1] and with GSK3β was “no binding” in each case.

B2: endogenous CASTOR1 (other, human, UniProt Q8WTX7 1-329, looked up)
chain: MELHILEHRVRVLSVARPGLWLYTHPLIKLLFLPRRSRCKFFSLTETPEDYTLMVDEEGFKELPPSEFLQVAEATWLVLNVSSHSGAAVQAAGVTKIARSVIAPLAEHHVSVLMLSTYQTDFILVREQDLSVVIHTLAQEFDIYREVGGEPVPVTRDDSSNGFPRTQHGPSPTVHPIQSPQNRFCVLTLDPETLPAIATTLIDVLFYSHSTPKEAASSSPEPSSITFFAFSLIEGYISIVMDAETQKKFPSDLLLTSSSGELWRMVRIGGQPLGFDECGIVAQIAGPLAAADISAYYISTFNFDHALVPEDGIGSVIEVLQRRQEGLAS
notes: Detected with an anti-CASTOR1 antiserum; also called GATSL3
In the case of B2, the figures for the binding result (with HA-metap2 [2]; in test [3]) were “no binding” and “binds”, respectively.

B3: CASTOR1 homodimer (other, human, not shown: small tags and cut ends)
chain 1: MELHILEHRVRVLSVARPGLWLYTHPLIKLLFLPRRSRCKFFSLTETPEDYTLMVDEEGFKELPPSEFLQVAEATWLVLNVSSHSGAAVQAAGVTKIARSVIAPLAEHHVSVLMLSTYQTDFILVREQDLSVVIHTLAQEFDIYREVGGEPVPVTRDDSSNGFPRTQHGPSPTVHPIQSPQNRFCVLTLDPETLPAIATTLIDVLFYSHSTPKEAASSSPEPSSITFFAFSLIEGYISIVMDAETQKKFPSDLLLTSSSGELWRMVRIGGQPLGFDECGIVAQIAGPLAAADISAYYISTFNFDHALVPEDGIGSVIEVLQRRQEGLAS
chain 2: MELHILEHRVRVLSVARPGLWLYTHPLIKLLFLPRRSRCKFFSLTETPEDYTLMVDEEGFKELPPSEFLQVAEATWLVLNVSSHSGAAVQAAGVTKIARSVIAPLAEHHVSVLMLSTYQTDFILVREQDLSVVIHTLAQEFDIYREVGGEPVPVTRDDSSNGFPRTQHGPSPTVHPIQSPQNRFCVLTLDPETLPAIATTLIDVLFYSHSTPKEAASSSPEPSSITFFAFSLIEGYISIVMDAETQKKFPSDLLLTSSSGELWRMVRIGGQPLGFDECGIVAQIAGPLAAADISAYYISTFNFDHALVPEDGIGSVIEVLQRRQEGLAS
notes: also called CASTOR1-HA with CASTOR1-FLAG; CASTOR1-containing dimers
As to B3, the binding result in test [4] is listed as “binds”.

B4: recombinant CASTOR1 (Cellular Arginine Sensor for mTORC1; protein encoded by the GATS protein-like 3 gene) (other, human, UniProt Q8WTX7 1-329, looked up, not shown: small tags and cut ends)
chain: MELHILEHRVRVLSVARPGLWLYTHPLIKLLFLPRRSRCKFFSLTETPEDYTLMVDEEGFKELPPSEFLQVAEATWLVLNVSSHSGAAVQAAGVTKIARSVIAPLAEHHVSVLMLSTYQTDFILVREQDLSVVIHTLAQEFDIYREVGGEPVPVTRDDSSNGFPRTQHGPSPTVHPIQSPQNRFCVLTLDPETLPAIATTLIDVLFYSHSTPKEAASSSPEPSSITFFAFSLIEGYISIVMDAETQKKFPSDLLLTSSSGELWRMVRIGGQPLGFDECGIVAQIAGPLAAADISAYYISTFNFDHALVPEDGIGSVIEVLQRRQEGLAS
notes: Expressed from pRK5 vectors in HEK-293T cells; which tag was used depends on the experiment; also called GATSL3; CASTOR1-HA
As for B4, the binding result in test [5] is given as “binds”.

B5: the binding result in test [6] is given as “no binding”.
